According to US20050204417A1 (WASHINGTON STATE UNIVERSITY RESEARCH FOUNDATION, published 2005):

B1: His-tagged AgGPPS1 truncated protein (SEQ ID NO:16) (enzyme)
chain: MFDFKEYLHSKAISVNEALERAVPLRYPEKIHEAMRYSLLAGGKRIRPILTIAACELVGGSEELAMPTACAMEMIHTMSLIHDDLPSMDNDDLRRGKLTNHKVFGEGTAVLAGDALLSFAFEHIAVSTRKTVASHRVLRVVSELGKAIGSQGVAGGQVADITSEGDPSVGLETLEWIHIHKTAVLLECAVVSGAIIGGASENEIERTGRYARCVGLLFQVVDDILDVTRSSEELGKTAGKDLVSDKATYPKLMGLEKAKEFADELLDRAKEELSCFNPAKAAPLLGLADYIALRQNLEHHHHHH
notes: N-terminally truncated (leader removed) with C-terminal His6 tag, expressed in E. coli; homodimer by gel filtration
B2: His-tagged AgGPPS2 truncated protein (SEQ ID NO:12) (enzyme)
chain: MFDFNKYMDSKAMTVNEALNKAIPLRYPQKIYESMRYSLLAGGKRVRPVLCIAACELVGGTEELAIPTACAIEMIHTMSLMHDDLPCIDNDDLRRGKPTNHKIFGEDTAVTAGNALHSYAFEHIAVSTSKTVGADRILRMVSELGRATGSEGVMGGQMVDIASEGDPSIDLQTLEWIHIHKTAMLLECSVVCGAIIGGASEIVIERARRYARCVGLLFQVVDDILDVTKSSDELGKTAGKDLISDKATYPKLMGLEKAKEFSDELLNRAKGELSCFDPVKAAPLLGLADYVAFRQNLEHHHHHH
notes: as for B1
B3: His-tagged AgGPPS3 truncated protein (SEQ ID NO:20) (enzyme)
chain: MFDFNKYMLSKAMAVTEALDKAIPHSYPQKIHESMRYSLLAGGKRVRPVLCIAACELVGGREELAMPTACAMEMIHTMSLIHDDLPCMDNDDLRRGKPTNHKVFGQDTALLAGDALHAFAFEHIVAFTSKSVGSDGILRAVTELARATGPQGIMGGQIVDIASERDAFVDLQTLEWIHIHKTAVLFECATVCGAIIGGASGDEIERIRRFARYLGLLFQVVDDILDVTKSSEDLGKTAGKDLVSDKATYPKLMGLEKAKGFSLELLNKAKEELSCFDPMKAAPLFGLADYMALRQNLEHHHHHH
notes: as for B1

Target: the molecule itself
Assay: gel filtration on calibrated Superdex 200; self-association of the subunit
Experimental: Molecular weight determination and kinetic evaluation. The molecular weight of GPP synthase was determined by gel filtration chromatography on a calibrated XK 16/70 column of Superdex 200 (Amersham Biosciences) as previously described (C. Burke and R. Croteau, J. Biol. Chem. 277:3141-3149, 2002). For kinetic evaluation, the standard prenyltransferase assay was performed (C. Burke and R. Croteau, J. Biol. Chem. 277:3141-3149, 2002) but the reaction was terminated after 4 min. to ensure linearity in the rate measurements. For preparative incubations, the reaction time was extended to 8 min., and all assays contained from 0.25 to 1.0 μg of purified protein.

Binding result, binds:
B1
B2
B3
